{
  "source": "patent US20170226204A1",
  "key": {"[1]": {"biological_target": "human CD7 molecule (human) (UniProt P09564)", "sequence (P09564 26-240)": "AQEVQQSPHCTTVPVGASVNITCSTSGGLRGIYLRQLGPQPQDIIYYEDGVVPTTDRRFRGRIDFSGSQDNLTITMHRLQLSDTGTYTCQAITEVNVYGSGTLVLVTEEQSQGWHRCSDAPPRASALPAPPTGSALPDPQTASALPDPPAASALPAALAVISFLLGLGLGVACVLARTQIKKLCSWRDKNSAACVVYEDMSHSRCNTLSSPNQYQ", "test": "flow cytometry on H460 cells transfected with pcDNA3.1-CD7"}, "[2]": {"biological_target": "human CD7 molecule (human) (UniProt P09564)", "test": "flow cytometry on CD7-positive Jurkat cells"}, "[3]": {"biological_target": "human CD7 molecule (human) (UniProt P09564)", "test": "flow cytometry on H460 cells transfected with pcDNA3.1-CD7", "remark": "listed apart in the source"}},
  "note": "Like-named read-outs stand apart in the source and are kept apart here.",
  "data": [
    {"substance": "commercial CD7 antibody (BD CD7-PE)", "values": [
      {"measurement": "transfection efficiency (percent of cells stained)", "setting": "[1]", "value": 18, "unit": "%"},
      {"measurement": "positive rate of CD7+", "setting": "[2]", "value": 96.6, "unit": "%"},
      {"measurement": "transfection efficiency (percent of cells stained)", "setting": "[3]", "value": 18.8, "unit": "%"}
    ]}
  ]
}
